Test results from the supplement of paper PMC6757056.
± gives the standard deviation of the averaged measurements.

B1: library; a variant is named by its letters at N, in order (parent)
chain: GCUGUCACCGGUGCUUGGUACGUUAUAUUCAGCCGGUCUGAUGAGUCUNNNNNNAGACGAAACAGC

Columns and labels:
[1] = variants of: B1; assay: FACS-Seq fitted mean relative fluorescence mCherry/BFP without ligand (log10 relative fluorescence); HEK293T overexpressing SLC46A1; higher = higher reporter protein expression; conditions: without (6R,S)-folinic acid; ligand present: no
How it was run: (§1)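 Cells were sorted into 6 bins on the mCherry/BFP ratio after 48 h with or without ligand. These were enriched HEK293T cells transduced by lentivirus with a ribozyme-switch mCherry reporter plus an EF1α-BFP marker. Fluorescence was obtained by fitting a normal distribution to sequencing-derived bin counts. Counts came from MiSeq sequencing of PCR-amplified, barcoded genomic DNA, binned by log10(mCherry/BFP), with means scaled to five spiked-in control ribozymes.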

[2] = variants of: B1; assay: normalized RNA/DNA level without ligand (relative to sTRSVctl = 100) (log10 (% of sTRSVctl)); HEK293T overexpressing SLC46A1; higher = less ribozyme self-cleavage, higher mRNA level; conditions: without (6R,S)-folinic acid; ligand present: no
How it was run: (§2)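 HEK293T cells received ligand, where used, 1 h before being transfected with 4 µg per 6-well well of library plasmids encoding reporter-linked ribozyme switches. After 72 h, RNA was extracted with EDTA and sequenced. RNA level was derived from RNA reads per DNA read, normalized to a spiked-in non-cleaving sequence or the top sequences, then scaled and log-transformed. Values were ×100 then log10, the top set was 25 sequences, and the minimum was 100 DNA reads.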

[3] = variants of: B1; assay: FACS-Seq fitted mean relative fluorescence mCherry/BFP with ligand (log10 relative fluorescence); HEK293T overexpressing SLC46A1; ligand concentration (+) FACS-Seq: 6 mM; higher = higher reporter protein expression; conditions: with (6R,S)-folinic acid; ligand present: yes
How it was run: as §1

[4] = variants of: B1; assay: normalized RNA/DNA level with ligand (relative to sTRSVctl = 100) (log10 (% of sTRSVctl)); HEK293T overexpressing SLC46A1; ligand concentration (+) RNA-Seq: 6 mM; higher = less ribozyme self-cleavage, higher mRNA level; conditions: with (6R,S)-folinic acid; ligand present: yes
How it was run: as §2

Variant	FACS-Seq fitted mean (log10) [1]	normalized RNA/DNA level without ligand (log10) [2]	FACS-Seq fitted mean (log10) [3]	normalized RNA/DNA level with ligand (log10) [4]
AUUGUG	0.281 ± 0.041	1.8 ± 0.0029	0.524 ± 0.1	1.99 ± 0.035
GAAUCC	–	2.023 ± 0.0051	–	2.02 ± 0.061
CAAUAC	–	1.984 ± 0.017	–	1.97 ± 0.038
CAAUAU	–	1.95 ± 0.025	–	2 ± 0.033
AAAGGU	–	1.939 ± 0.0029	–	2.01 ± 0.032
AAACCG	–	1.97 ± 0.0043	–	2 ± 0.029
AAACCC	–	2.048 ± 0.0094	–	2.032 ± 0.0089
AAACCU	–	2.0232 ± 0.0015	–	2.03 ± 0.031
UAAUAC	–	1.941 ± 0.0049	–	1.96 ± 0.021
UAAUAA	–	1.931 ± 0.0048	–	1.985 ± 0.013
UUUAUG	0.307 ± 0.0054	1.79 ± 0.024	0.315 ± 0.17	1.96 ± 0.041
GUUGUA	0.281 ± 0.083	1.962 ± 0.011	0.415 ± 0.15	1.97 ± 0.05
GUUGUG	0.391 ± 0.14	1.879 ± 0.0056	0.458 ± 0.072	2.01 ± 0.023
UUUCCG	0.446 ± 0.012	1.918 ± 0.012	0.493 ± 0.15	1.99 ± 0.05
UAAUCC	–	2.001 ± 0.0044	–	2.03 ± 0.03
UAAUCA	–	1.945 ± 0.013	–	1.97 ± 0.04
UAAUCG	–	1.795 ± 0.012	–	1.988 ± 0.016
AUUCAG	0.281 ± 0.045	1.962 ± 0.0047	0.431 ± 0.097	2.009 ± 0.018
AUUUUG	0.462 ± 0.029	1.927 ± 0.014	0.552 ± 0.039	1.99 ± 0.05
AUUUUC	0.447 ± 0.23	2.031 ± 0.0051	0.549 ± 0.048	2 ± 0.021
AUUUUA	0.5131 ± 0.0034	1.969 ± 0.0082	0.318 ± 0.1	2.01 ± 0.023
AUGUGG	0.0386 ± 0.035	1.844 ± 0.0091	0.311 ± 0.041	2.01 ± 0.046
GAAGUC	–	2.05 ± 0.021	–	2.04 ± 0.026
CAACAC	–	2.0222 ± 0.00082	–	2.014 ± 0.019

Variant	FACS-Seq fitted mean (log10) [1]	normalized RNA/DNA level without ligand (log10) [2]	FACS-Seq fitted mean (log10) [3]	normalized RNA/DNA level with ligand (log10) [4]
CAACAG	–	1.976 ± 0.00034	–	2.01 ± 0.062
CAACAU	–	1.978 ± 0.0086	–	2.02 ± 0.057
CAACAA	–	1.966 ± 0.015	–	1.99 ± 0.032
GUUGCU	0.299 ± 0.016	2.02 ± 0.023	0.44 ± 0.32	2.008 ± 0.018
GUUGCG	0.325 ± 0.01	1.91 ± 0.02	0.566 ± 0.19	2.02 ± 0.038
UUUUGG	0.169 ± 0.054	1.8812 ± 0.0015	0.473 ± 0.2	2.01 ± 0.028
UUUUGA	0.586 ± 0.1	1.976 ± 0.013	0.704 ± 0.022	2.02 ± 0.036
UAAGCC	–	2 ± 0.0023	–	2.03 ± 0.038
GUUCCA	0.262 ± 0.14	2.0222 ± 0.00044	0.191 ± 0.16	2.03 ± 0.054
GAAAAA	–	1.986 ± 0.0038	–	2.01 ± 0.038
AAACUU	–	2.007 ± 0.0031	–	2.02 ± 0.024
AAACUA	–	1.9744 ± 0.0006	–	2 ± 0.038
AAACUC	–	2.0456 ± 0.00044	–	2.03 ± 0.049
CAAGUC	–	2.04 ± 0.021	–	2.02 ± 0.037
CAAGUG	–	2 ± 0.028	–	1.98 ± 0.046
CAAGUA	–	1.9916 ± 0.0019	–	2.03 ± 0.045
AAACGC	–	1.996 ± 0.006	–	2.01 ± 0.032
GUUCAA	0.497 ± 0.083	1.98 ± 0.023	0.591 ± 0.17	1.98 ± 0.023
GUUCAC	0.0291 ± 0.011	2.041 ± 0.016	-0.0744 ± 0.017	2.032 ± 0.014
UAAACA	–	1.96 ± 0.02	–	1.994 ± 0.016
UAAACU	–	2.008 ± 0.013	–	2.02 ± 0.058
UAAACC	–	2.006 ± 0.0033	–	2.01 ± 0.043
AAAGUA	–	1.937 ± 0.014	–	2 ± 0.037
AAAGUU	–	1.972 ± 0.0027	–	2.01 ± 0.016
